Measured values: the Human Domainome abundance scans (Beltran et al. 2025)
± gives the uncertainty stated by the source.

B1: Zinc finger MYM-type protein 3, residues 589 to 668; numbered along this chain, Q14202 (parent)
chain: LSCHYCHSLFSGKPEVLDWQDQVFQFCCRDCCEDFKRLRGVVSQCEHCRQEKLLHEKLRFSGVEKSFCSEGCVLLYKQDF

Variants of: B1
Assay: abundance fitness (aPCA) (normalised: wild type 0, dead -1); higher = more abundant; growth selection in yeast, the domain comes from the species named
Conditions: Homo sapiens

Variant	abundance fitness
LSCHYCHSLFSGKPEVLDWQDQCFQFCCRDCCEDFKRLRGVVSQCEHCRQEKLLHEKLRFSGVEKSFCSEGCVLLYKQDF	0.236 ± 0.046
LSCHYCHSLFSGKPEVLDWYDQVFQFCCRDCCEDFKRLRGVVSQCEHCRQEKLLHEKLRFSGVEKSFCSEGCVLLYKQDF	-0.3 ± 0.21
LSCHYCHSLFSGKPEVLDWQDQVFGFCCRDCCEDFKRLRGVVSQCEHCRQEKLLHEKLRFSGVEKSFCSEGCVLLYKQDF	0.088 ± 0.039
LSCHYCHSLFSGKPEVLDWQDQVFCFCCRDCCEDFKRLRGVVSQCEHCRQEKLLHEKLRFSGVEKSFCSEGCVLLYKQDF	-0.081 ± 0.062
LSCHYCHSLFSGKPEVLDWQDQVFAFCCRDCCEDFKRLRGVVSQCEHCRQEKLLHEKLRFSGVEKSFCSEGCVLLYKQDF	-0.044 ± 0.04
LSCHYCHSLFSGKPEVLDWQDQVFEFCCRDCCEDFKRLRGVVSQCEHCRQEKLLHEKLRFSGVEKSFCSEGCVLLYKQDF	0.226 ± 0.043
LSCHYCHSLFSGKPEVLDWQDQVFDFCCRDCCEDFKRLRGVVSQCEHCRQEKLLHEKLRFSGVEKSFCSEGCVLLYKQDF	0.085 ± 0.056
LSCHYCHSLFSGKPEVLDWQDQVFFFCCRDCCEDFKRLRGVVSQCEHCRQEKLLHEKLRFSGVEKSFCSEGCVLLYKQDF	-0.035 ± 0.073
LSCHYCHSLFSGKPEVLDWQDQVDQFCCRDCCEDFKRLRGVVSQCEHCRQEKLLHEKLRFSGVEKSFCSEGCVLLYKQDF	-0.376 ± 0.064
LSCHYCHSLFSGKPEVLDWQDQVCQFCCRDCCEDFKRLRGVVSQCEHCRQEKLLHEKLRFSGVEKSFCSEGCVLLYKQDF	0.112 ± 0.057
LSCHYCHSLFSGKPEVLDWQDQVLQFCCRDCCEDFKRLRGVVSQCEHCRQEKLLHEKLRFSGVEKSFCSEGCVLLYKQDF	0.203 ± 0.041
LSCHYCHSLFSGKPEVLDWQDQVNQFCCRDCCEDFKRLRGVVSQCEHCRQEKLLHEKLRFSGVEKSFCSEGCVLLYKQDF	0.001 ± 0.083
LSCHYCHSLFSGKPEVLDWQDQVEQFCCRDCCEDFKRLRGVVSQCEHCRQEKLLHEKLRFSGVEKSFCSEGCVLLYKQDF	-0.143 ± 0.045
LSCHYCHSLFSGKPEVLDWQDQVKQFCCRDCCEDFKRLRGVVSQCEHCRQEKLLHEKLRFSGVEKSFCSEGCVLLYKQDF	0.084 ± 0.045
LSCHYCHSLFSGKPEVLDWQDQVVQFCCRDCCEDFKRLRGVVSQCEHCRQEKLLHEKLRFSGVEKSFCSEGCVLLYKQDF	0.133 ± 0.041
LSCHYCHSLFSGKPEVLDWQDQVWQFCCRDCCEDFKRLRGVVSQCEHCRQEKLLHEKLRFSGVEKSFCSEGCVLLYKQDF	0.051 ± 0.045
LSCHYCHSLFSGKPEVLDWQDQVIQFCCRDCCEDFKRLRGVVSQCEHCRQEKLLHEKLRFSGVEKSFCSEGCVLLYKQDF	0.072 ± 0.078
LSCHYCHSLFSGKPEVLDWQDQVGQFCCRDCCEDFKRLRGVVSQCEHCRQEKLLHEKLRFSGVEKSFCSEGCVLLYKQDF	-0.136 ± 0.042

Variant	abundance fitness
LSCHYCHSLFSGKPEVLDWQDQVPQFCCRDCCEDFKRLRGVVSQCEHCRQEKLLHEKLRFSGVEKSFCSEGCVLLYKQDF	-0.383 ± 0.068
LSCHYCHSLFSGKPEVLDWQDQVTQFCCRDCCEDFKRLRGVVSQCEHCRQEKLLHEKLRFSGVEKSFCSEGCVLLYKQDF	-0.033 ± 0.048
LSCHYCHSLFSGKPEVLDWQDQVQQFCCRDCCEDFKRLRGVVSQCEHCRQEKLLHEKLRFSGVEKSFCSEGCVLLYKQDF	-0.038 ± 0.046
LSCHYCHSLFSGKPEVLDWQMQVFQFCCRDCCEDFKRLRGVVSQCEHCRQEKLLHEKLRFSGVEKSFCSEGCVLLYKQDF	0.068 ± 0.054
LSCHYCHSLFSGKPEVLDWQSQVFQFCCRDCCEDFKRLRGVVSQCEHCRQEKLLHEKLRFSGVEKSFCSEGCVLLYKQDF	-0.065 ± 0.045
LSCHYCHSLFSGKPEVLDWQEQVFQFCCRDCCEDFKRLRGVVSQCEHCRQEKLLHEKLRFSGVEKSFCSEGCVLLYKQDF	-0.114 ± 0.056
LSCHYCHSLFSGKPEVLDWQKQVFQFCCRDCCEDFKRLRGVVSQCEHCRQEKLLHEKLRFSGVEKSFCSEGCVLLYKQDF	0.086 ± 0.051
LSCHYCHSLFSGKPEVLDWQQQVFQFCCRDCCEDFKRLRGVVSQCEHCRQEKLLHEKLRFSGVEKSFCSEGCVLLYKQDF	0.033 ± 0.055
LSCHYCHSLFSGKPEVLDWQHQVFQFCCRDCCEDFKRLRGVVSQCEHCRQEKLLHEKLRFSGVEKSFCSEGCVLLYKQDF	-0.182 ± 0.1
LSCHYCHSLFSGKPEVLDWQCQVFQFCCRDCCEDFKRLRGVVSQCEHCRQEKLLHEKLRFSGVEKSFCSEGCVLLYKQDF	-0.204 ± 0.07
LSCHYCHSLFSGKPEVLDWQRQVFQFCCRDCCEDFKRLRGVVSQCEHCRQEKLLHEKLRFSGVEKSFCSEGCVLLYKQDF	-0.075 ± 0.044
LSCHYCHSLFSGKPEVLDWQGQVFQFCCRDCCEDFKRLRGVVSQCEHCRQEKLLHEKLRFSGVEKSFCSEGCVLLYKQDF	-0.114 ± 0.044
LSCHYCHSLFSGKPEVLDWQYQVFQFCCRDCCEDFKRLRGVVSQCEHCRQEKLLHEKLRFSGVEKSFCSEGCVLLYKQDF	-0.386 ± 0.089
LSCHYCHSLFSGKPEVLDWQPQVFQFCCRDCCEDFKRLRGVVSQCEHCRQEKLLHEKLRFSGVEKSFCSEGCVLLYKQDF	-0.146 ± 0.053
LSCHYCHSLFSGKPEVLDWQVQVFQFCCRDCCEDFKRLRGVVSQCEHCRQEKLLHEKLRFSGVEKSFCSEGCVLLYKQDF	-0.355 ± 0.052
LSCHYCHSLFSGKPEVLDWQNQVFQFCCRDCCEDFKRLRGVVSQCEHCRQEKLLHEKLRFSGVEKSFCSEGCVLLYKQDF	0.027 ± 0.062
LSCHYCHSLFSGKPEVLDWQTQVFQFCCRDCCEDFKRLRGVVSQCEHCRQEKLLHEKLRFSGVEKSFCSEGCVLLYKQDF	0.004 ± 0.051
